Measurements published in PMC5048593.

Key:
Assay in all cases: ITC
[1] = target: p107^ΔPL containing six mutations to the Rb sequence (p107^6x) (human) (UniProt P28749)
[2] = target: p107^ΔPL H797R (human) (UniProt P28749)
[3] = target: p107^ΔPL V490K (human) (UniProt P28749)
[4] = target: p107^ΔPL E560H (human) (UniProt P28749)
[5] = target: phosphorylated p107^ΔPL982 (human) (UniProt P28749)
[6] = target: Rb pocket domain lacking its large internal loop (Rb^ΔPL: residues 380–787 with 581–642 deleted) (human) (UniProt P06400)

Substance: E2F1 transactivation domain (E2F1^TD) (domain or fragment)
- fold higher affinity than p107^ΔPL [1]: 3 fold

Substance: E2F2 transactivation domain (E2F2^TD) (domain or fragment)
- fold higher affinity than p107^ΔPL [1]: 24 fold
- fold increase in affinity over p107^ΔPL [2]: 3 fold
- fold increase in affinity over p107^ΔPL [3]: 3 fold
- fold increase in affinity over p107^ΔPL [4]: 3 fold

Substance: E2F4 transactivation domain (E2F4^TD) (domain or fragment)
- fold reduction in affinity against unphosphorylated p107^ΔPL982 [5]: 3 fold

Substance: E2F4^TD N395G (domain or fragment)
- fold increase in affinity over wild-type E2F4^TD [6]: 5 fold
